According to patent US7199218B1, “ICBP90 polypeptide and its fragments and polynucleotides coding for said polypeptides and applications for diagnosing and treating cancer” (Institut National de la Sante et de la Recherche Medicale …, priority 1999, dated 2007):

What was measured:
[1] = system: ICB DNA sequence (ICB1/ICB2 boxes of the human topoisomerase IIα promoter); test: Gel retardation (acrylamide gel) binding of protein to 32P-labelled ICB oligonucleotides; details: 1 μg protein, 1 ng 32P-labelled oligonucleotide, competition with non-labelled oligonucleotides
Description: To test the ability of the 59 kDa protein to bind specifically to the ICB1 and/or ICB2 boxes, three tandem copies of ICB2 (ICB2X3, sequences described above) were labelled at the terminal end with 32 P phosphore using the T4 polynucleotide kinase (New England Biolabs) and […] (160 mCi/mmol, ICN Irvine, Calif., USA). To examine the specificity of the binding, oligonucleotides containing only one copy of the CCAAT box were synthesized:
The ICBP-59 protein (1 μg) was incubated with 1 ng of oligonucleotide and labelled at its terminal end by phosphorous ^32P in 12% glycerol, 12 mM HEPES-NaOH (pH 7.9), 60 mM KCl, 4 mM Tris-HCl (pH 7.9), 100 ng BSA, 0.6 mM DTT, and 100 ng poly(dI/dC) in 20 μl (Inouye et al., 1994). After a 30-minutes incubation at room temperature, the reaction mix was loaded in 6% polyacrylamide gels. In competition experiments, the quantity indicated of non-labelled oligonucleotides were added to the reaction mix 10 minutes before the addition of proteins. To examine the binding properties of ICBP90 with regard to the ICB2 box, we used the same protocol except that labelled oligonucleotide contained only one copy of the CCAAT sequence as described below:
Binding specificity was studied using a non-labelled nucleotide containing a GC box of the human topoisomerase IIa promoter: […]

[2] = molecular target: T1, TIP60 (Tat Interactive Protein, 60 kDa) (Homo sapiens, UniProt Q92993); test: Double-hybrid technique, protein-protein interaction; type: binding
T1 construct: expressed in transfected cells; own knowledge
T1 sequence (Q92993 whole entry, species assumed): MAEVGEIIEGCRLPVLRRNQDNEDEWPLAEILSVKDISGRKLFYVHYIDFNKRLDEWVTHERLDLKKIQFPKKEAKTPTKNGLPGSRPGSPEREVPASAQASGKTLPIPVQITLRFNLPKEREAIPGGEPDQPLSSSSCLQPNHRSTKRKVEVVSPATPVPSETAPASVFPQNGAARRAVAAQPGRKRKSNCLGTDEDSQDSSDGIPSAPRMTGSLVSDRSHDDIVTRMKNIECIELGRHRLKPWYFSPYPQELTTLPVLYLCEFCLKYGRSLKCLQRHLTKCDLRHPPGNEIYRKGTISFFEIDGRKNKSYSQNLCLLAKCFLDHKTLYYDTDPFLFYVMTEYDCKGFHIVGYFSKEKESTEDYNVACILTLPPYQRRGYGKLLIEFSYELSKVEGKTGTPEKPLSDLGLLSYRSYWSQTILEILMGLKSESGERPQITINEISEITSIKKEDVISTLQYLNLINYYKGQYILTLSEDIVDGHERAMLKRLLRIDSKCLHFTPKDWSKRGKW
From the text: The TIP60 protein has very recently been described as being a coactivator of the nuclear receptor, especially the receptor for the androgens (Brady M E et al., 1999).

B1: ICBP90: Inverted CCAAT Box Binding Protein of 90 kDa, 793 amino acids, SEQ ID No.2 (protein, listed as Homo sapiens)
chain: MWIQVRTMDGRQTHTVDSLSRLTKVEELRRKIQELFHVEPGLQRLFYRGKQMEDGHTLFDYEVRLNDTIQLLVRQSLVLPHSTKERDSELSDTDSGCCLGQSESDKSSTHGEAAAETDSRPADEDMWDETELGLYKVNEYVDARDTNMGAWFEAQVVRVTRKAPSRDEPCSSTSRPALEEDVIYHVKYDDYPENGVVQMNSRDVRARARTIIKWQDLEVGQVVMLNYNPDNPKERGFWYDAEISRKRETRTARELYANVVLGDDSLNDCRIIFVDEVFKIERPGEGSPMVDNPMRRKSGPSCKHCKDDVNRLCRVCACHLCGGRQDPDKQLMCDECDMAFHIYCLDPPLSSVPSEDEWYCPECRNDASEVVLAGERLRESKKNAKMASATSSSQRDWGKGMACVGRTKECTIVPSNHYGPIPGIPVGTMWRFRVQVSESGVHRPHVAGIHGRSNDGSYSLVLAGGYEDDVDHGNFFTYTGSGGRDLSGNKRTAEQSCDQKLTNTNRALALNCFAPINDQEGAEAKDWRSGKPVRVVRNVKGGKNSKYAPAEGNRYDGIYKVVKYWPEKGKSGFLVWRYLLRRDDDEPGPWTKEGKDRIKKLGLTMQYPEGYLEALANREREKENSKREEEEQQEGGFASPRTGKGKWKRKSAGGGPSRAGSPRRTSKKTKVEPYSLTAQQSSLIREDKSNAKLWNEVLASLKDRPASGSPFQLFLSKVEETFQCICCQELVFRPITTVCQHNVCKDCLDRSFRAQVFSCPACRYDLGRSYAMQVNQPLQTVLNQLFPGYGNGR
- ability to bind specifically an ICB DNA sequence [1]: identical from top to bottom to that observed for ICBP-59
- interaction with TIP60 [2]: existence of interactions

B2: ICBP-59: 59 kDa C-terminal fragment, amino acids 263 to 793 of SEQ ID NO. 2 (protein, listed as Homo sapiens)
chain: DDSLNDCRIIFVDEVFKIERPGEGSPMVDNPMRRKSGPSCKHCKDDVNRLCRVCACHLCGGRQDPDKQLMCDECDMAFHIYCLDPPLSSVPSEDEWYCPECRNDASEVVLAGERLRESKKNAKMASATSSSQRDWGKGMACVGRTKECTIVPSNHYGPIPGIPVGTMWRFRVQVSESGVHRPHVAGIHGRSNDGSYSLVLAGGYEDDVDHGNFFTYTGSGGRDLSGNKRTAEQSCDQKLTNTNRALALNCFAPINDQEGAEAKDWRSGKPVRVVRNVKGGKNSKYAPAEGNRYDGIYKVVKYWPEKGKSGFLVWRYLLRRDDDEPGPWTKEGKDRIKKLGLTMQYPEGYLEALANREREKENSKREEEEQQEGGFASPRTGKGKWKRKSAGGGPSRAGSPRRTSKKTKVEPYSLTAQQSSLIREDKSNAKLWNEVLASLKDRPASGSPFQLFLSKVEETFQCICCQELVFRPITTVCQHNVCKDCLDRSFRAQVFSCPACRYDLGRSYAMQVNQPLQTVLNQLFPGYGNGR
- ability to bind specifically an ICB DNA sequence [1]: can specifically bind an ICB DNA sequence
